In patent publication US20230192854A1 (SHANGHAI JUNSHI BIOSCIENCES, published 2023):

T1: murine BTLA (murine, UniProt Q7TSA3 30-183, limits assumed)
T1 sequence (looked up): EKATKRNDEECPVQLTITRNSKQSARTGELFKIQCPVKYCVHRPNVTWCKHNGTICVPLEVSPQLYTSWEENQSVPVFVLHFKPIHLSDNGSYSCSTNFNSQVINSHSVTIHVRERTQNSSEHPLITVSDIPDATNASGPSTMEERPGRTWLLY

T2: recombinant human FcγRIIA (CD32a) R167 (human, UniProt P12318 36-218)
T2 sequence (looked up): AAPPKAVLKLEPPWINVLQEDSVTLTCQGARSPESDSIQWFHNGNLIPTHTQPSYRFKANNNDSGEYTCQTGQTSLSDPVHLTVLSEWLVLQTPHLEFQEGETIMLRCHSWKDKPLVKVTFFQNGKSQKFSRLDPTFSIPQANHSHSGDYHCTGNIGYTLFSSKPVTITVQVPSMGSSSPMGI

B1: humanized anti-BTLA antibody hu17 (antibody, V domains shown)
VH: QVQLVQSGAEVKKPGASVKLSCKASGYNFKHTYAHWVRQAPGQGLEWIGRIDPANGNTKYDPKFQGRATMTADTASNTAYLELSSLRSEDTAVYYCVADHYGSSLLDYWGQGTLVTVSS
VL: DIVMTQTPLSLSVTPGQPASISCKSSQSLLDSDGKTYLNWFQQRPGQSPRRLIYLVSKLDSGVPDRFSGSGSGTDFTLKISRVEAEDVGVYYCWQGTYFPYTFGQGTKLEIK
notes: Called a full humanized antibody; also called hul7; hull
B2: humanized anti-BTLA antibody hu19 (antibody, V domains shown)
VH: QVQLVQSGAEVKKPGASVKLSCKASGYNFKHTYAHWVRQAPGQGLEWIGRIDPANGNTKYDPKFQGRATMTADTASNTAYLELSSLRSEDTAVYYCVADHYGSSLLDYWGQGTLVTVSS
VL: DIVMTQTPLSLSVTPGQPASISCKSSQSLLDSDGKTYLNWFQQRPGQSPRRLMHLVSKLDSGVPDRFSGSGSGTDFTLKISRVEAEDVGVYYCWQGTYFPYTFGQGTKLEIK
B3: recombinant humanized anti-BTLA monoclonal antibody hu18 (antibody, human IgG4 S228P, kappa)
heavy: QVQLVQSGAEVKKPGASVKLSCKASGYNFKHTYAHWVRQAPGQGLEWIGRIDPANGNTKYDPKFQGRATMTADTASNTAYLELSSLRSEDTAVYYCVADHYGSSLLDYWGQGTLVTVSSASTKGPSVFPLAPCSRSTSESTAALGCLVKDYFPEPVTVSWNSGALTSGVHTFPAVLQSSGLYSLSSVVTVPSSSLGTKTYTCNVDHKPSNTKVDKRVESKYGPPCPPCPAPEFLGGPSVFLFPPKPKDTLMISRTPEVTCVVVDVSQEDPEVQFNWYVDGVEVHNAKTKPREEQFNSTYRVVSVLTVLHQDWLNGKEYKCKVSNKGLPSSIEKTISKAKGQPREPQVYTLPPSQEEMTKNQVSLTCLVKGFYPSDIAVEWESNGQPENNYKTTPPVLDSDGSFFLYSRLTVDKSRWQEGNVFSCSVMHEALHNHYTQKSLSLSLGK
light: DVVMTQTPLSLSVTPGQPASISCKSSQSLLDSDGKTYLNWFQQRPGQSPRRLIYLVSKLDSGVPDRFSGSGSGTDFTLKISRVEAEDVGVYYCWQGTYFPYTFGQGTKLEIKRTVAAPSVFIFPPSDEQLKSGTASVVCLLNNFYPREAKVQWKVDNALQSGNSQESVTEQDSKDSTYSLSSTLTLSKADYEKHKVYACEVTHQGLSSPVTKSFNRGEC
notes: also called recombinant human anti-BTLA antibody of the IgG4 subtype

Key:
murine BTLA = molecular target: T1, murine BTLA; assay: OD 450 nm against log ng/mL of antibody (ELISA-type readout as drawn; Example 11 describes a Fortebio/SPR chip assay with BTLA coupled to the chip)
hBTLA expressed on cells = hBTLA expressed on cells (human, UniProt Q7Z6A9 31-289); assay: cell-based or functional assay
human C1q = molecular target: T3, human C1q (human, UniProt P02745 23-245; P02746 28-253; P02747 29-245); assay: C1q binding assay, method not described (Table 18: 'Non-specific binding')
T3 construct: also called C1q protein

[1] = molecular target: recombinant human FcγRI (CD64) (human, UniProt P12314 16-288); assay: SPR, Biacore T200; Fc receptor captured on anti-His antibody, antibody injected
Description: (§1) ADCC is initiated when an antibody binds to a cell surface target protein and then links to an Fc γ receptor (FcγR) expressed on effector cells. […] In conjunction with ADCC, CDC is activated when antibodies cross-link the cell surface target and C1q protein, followed by a cascade reaction of complement complex formation and target cell lysis. As a proxy for ADCC and CDC, the detection of antibody binding to FcγR and C1q may serve as basic indicators of ADCC and CDC. Thus, in the present invention, the kinetic binding affinity of monoclonal antibodies for major FcγRs was evaluated using biacore T200 (GE).
(§2) Anti-His antibody (GE) was immobilized on the sensor wafer. Various Fc receptors, including recombinant human FcγRIIIA (CD16a) V176, recombinant human FcγRIIA (CD32a) R167, recombinant human FcγRI (CD64) and recombinant human FcRn were captured, then a series of diluted recombinant human anti-BTLA antibodies (i.e., hu18) were injected, and the binding properties of the interactions were assayed and analyzed. hu18 is an IgG4 subtype, and hu18-IgG1 is an IgG1 subtype that shares the same Fab as hu18 and serves as a positive control.

[2] = molecular target: recombinant human FcγRIIIA (CD16a) V176 (human, UniProt P08637 17-208); assay: as above
Description: as §1, §2

[3] = molecular target: T2, recombinant human FcγRIIA (CD32a) R167; assay: as above
Description: as §1, §2

recombinant human FcRn = molecular target: T4, recombinant human FcRn (human, UniProt P55899 24-297; P61769 21-119); assay: as above
T4 construct: Captured on an anti-His antibody
Description: as §1, §2

T4 sequence (P55899 24-297 limits assumed, form in doubt, chain 1 of 2): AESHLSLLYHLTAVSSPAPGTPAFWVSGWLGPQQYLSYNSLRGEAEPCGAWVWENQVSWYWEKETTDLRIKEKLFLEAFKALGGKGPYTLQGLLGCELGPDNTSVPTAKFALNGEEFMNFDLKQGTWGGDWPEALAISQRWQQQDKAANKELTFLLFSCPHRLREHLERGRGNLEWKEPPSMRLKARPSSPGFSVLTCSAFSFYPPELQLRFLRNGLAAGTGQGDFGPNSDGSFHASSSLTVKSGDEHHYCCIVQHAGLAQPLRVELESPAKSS
T4 sequence (P61769 21-119 limits assumed, form in doubt, chain 2 of 2): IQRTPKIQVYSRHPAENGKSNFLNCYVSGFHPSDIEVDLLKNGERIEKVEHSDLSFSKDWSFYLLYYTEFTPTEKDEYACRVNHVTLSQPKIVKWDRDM
recombinant human FcγRI (CD64), sequence (P12314 16-288 limits assumed): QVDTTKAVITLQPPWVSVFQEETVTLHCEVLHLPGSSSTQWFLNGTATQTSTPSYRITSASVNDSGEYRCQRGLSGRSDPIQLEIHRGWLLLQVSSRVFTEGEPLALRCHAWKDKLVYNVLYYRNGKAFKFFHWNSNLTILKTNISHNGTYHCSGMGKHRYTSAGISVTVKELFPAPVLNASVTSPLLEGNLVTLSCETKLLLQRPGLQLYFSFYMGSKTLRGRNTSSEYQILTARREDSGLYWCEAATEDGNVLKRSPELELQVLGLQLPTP
recombinant human FcγRIIIA (CD16a) V176, sequence (P08637 17-208 F176V): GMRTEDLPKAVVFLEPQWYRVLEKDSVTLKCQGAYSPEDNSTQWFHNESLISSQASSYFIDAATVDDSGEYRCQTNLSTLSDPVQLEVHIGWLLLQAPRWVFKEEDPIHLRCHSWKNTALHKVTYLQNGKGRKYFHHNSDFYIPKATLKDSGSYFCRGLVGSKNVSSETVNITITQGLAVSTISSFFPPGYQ
T3 sequence (P02745 23-245 limits assumed, chain 1 of 3): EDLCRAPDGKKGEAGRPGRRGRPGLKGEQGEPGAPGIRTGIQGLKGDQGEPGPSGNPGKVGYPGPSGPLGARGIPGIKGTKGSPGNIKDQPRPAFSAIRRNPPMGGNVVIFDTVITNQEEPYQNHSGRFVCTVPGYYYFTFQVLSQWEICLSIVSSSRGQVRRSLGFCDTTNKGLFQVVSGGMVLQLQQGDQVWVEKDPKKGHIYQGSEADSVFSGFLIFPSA
T3 sequence (P02746 28-253 limits assumed, chain 2 of 3): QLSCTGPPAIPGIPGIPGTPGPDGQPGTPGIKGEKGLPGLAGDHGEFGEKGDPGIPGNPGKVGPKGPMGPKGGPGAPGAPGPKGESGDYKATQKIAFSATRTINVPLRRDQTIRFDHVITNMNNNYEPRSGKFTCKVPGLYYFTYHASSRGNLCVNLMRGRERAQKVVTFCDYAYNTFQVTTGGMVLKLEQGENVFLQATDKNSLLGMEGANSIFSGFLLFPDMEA
T3 sequence (P02747 29-245 limits assumed, chain 3 of 3): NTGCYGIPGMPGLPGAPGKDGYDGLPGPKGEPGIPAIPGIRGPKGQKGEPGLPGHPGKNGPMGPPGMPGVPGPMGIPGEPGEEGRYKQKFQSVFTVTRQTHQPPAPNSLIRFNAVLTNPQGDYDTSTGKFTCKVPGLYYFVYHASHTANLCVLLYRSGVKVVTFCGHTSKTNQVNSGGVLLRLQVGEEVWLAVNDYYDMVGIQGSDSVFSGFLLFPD

Binder	binding result (murine BTLA)	EC50 (ng/mL); NFAT-luciferase luminescence of Jurkat hPD-1/hBTLA report cells co-cultured with CHO cells expressing hPD-L1/hHVEM (hBTLA expressed on cells)	binding result (human C1q)	Kd [1]	koff [1]	kon [1]	Kd [2]	fold weaker interaction than the control antibody of the IgG1 subtype (hu18-IgG1) [2]	Kd [3]	Kd (recombinant human FcRn)	koff (recombinant human FcRn)	kon (recombinant human FcRn)
B1	no binding (tested: 1000 ng/mL (log 3))	257 ng/mL										
B2		290 ng/mL										
B3		277 ng/mL	no binding	0.0184 µM	0.00387 s⁻¹	210000 M⁻¹ s⁻¹	60.2 µM	400 fold	40.6 µM	0.138 µM	0.0708 s⁻¹	512000 M⁻¹ s⁻¹
